Measured values: patent publication US20180030149A1 (AVEO PHARMACEUTICALS, published 2018)

B1: Sh24C05-45 (antibody, human IgG1, kappa, V domains shown)
VH: EVQLVESGGGLVKPGGSLRLSCAASGFTFSDYAMSWVRQAPGKGLEWVSTISDGGTYTYYPDNVKGRFTISRDNAKNSLYLQMNSLRAEDTAVYYCAREWGDYDGFDYWGQGTLVTVSS
VL: DIQMTQSPSSLSASVGDRVTITCRASQEISGYLSWYQQKPGKAPKLLIYAASTLDSGVPSRFSGSGSGTDFTLTISSLQPEDFATYYCLQYDSYPYTFGQGTKLEIKR
notes: Humanized, human IgG1/kappa
B2: Sh24C05-14 (antibody, human IgG1, kappa)
heavy: not shown
light: DIQMTQSPSSLSASVGDRVTITCRASQEISGYLSWLQQKPGGAIKRLIYAASTLDSGVPSRFSGSGSGSDYTLTISSLQPEDFATYYCLQYDSYPYTFGQGTKLEIKRTVAAPSVFIFPPSDEQLKSGTASVVCLLNNFYPREAKVQWKVDNALQSGNSQESVTEQDSKDSTYSLSSTLTLSKADYEKHKVYACEVTHQGLSSPVTKSFNRGEC
notes: Humanized, human IgG1/kappa
B3: Sh24C05-15 (antibody, human IgG1, kappa, V domains shown)
VH: EVQLVESGGGLVKPGGSLRLSCAASGFTFSDYAMSWVRQAPGKGLEWVSTISDGGTYTYYPDNVKGRFTISRDNAKNSLYLQMNSLRAEDTAVYYCAREWGDYDGFDYWGQGTLVTVSS
VL: DIQMTQSPSSLSASVGDRVTITCRASQEISGYLSWLQQKPGGAIKRLIYAASTLDSGVPSRFSGSGSGSDYTLTISSLQPEDFATYYCLQYDSYPYTFGQGTKLEIKR
notes: Humanized, human IgG1/kappa
B4: Sh24C05-16 (antibody, human IgG1, kappa, V domains shown)
VH: EVQLLESGGGLVQPGGSLRLSCAASGFTFSDYAMSWVRQAPGKGLEWVSTISDGGTYTYYPDNVKGRFTISRDNSKNTLYLQMNSLRAEDTAVYYCAREWGDYDGFDYWGQGTLVTVSS
VL: DIQMTQSPSSLSASVGDRVTITCRASQEISGYLSWLQQKPGGAIKRLIYAASTLDSGVPSRFSGSGSGSDYTLTISSLQPEDFATYYCLQYDSYPYTFGQGTKLEIKR
notes: Humanized, human IgG1/kappa
B5: Sh24C05-18 (antibody, human IgG1, kappa)
heavy: not shown
light: DIQMTQSPSSLSASVGDRVTITCRASQEISGYLSWLQQKPGGAIKRLIYAASTLDSGVPSRFSGSGSGSDYTLTISSLQPEDFATYYCLQYDSYPYTFGQGTKLEIKRTVAAPSVFIFPPSDEQLKSGTASVVCLLNNFYPREAKVQWKVDNALQSGNSQESVTEQDSKDSTYSLSSTLTLSKADYEKHKVYACEVTHQGLSSPVTKSFNRGEC
notes: Humanized, human IgG1/kappa
B6: Sh24C05-19 (antibody, human IgG1, kappa, V domains shown)
VH: QVQLVESGGGLVKPGGSLRLSCAASGFTFSDYAMSWIRQAPGKGLEWVSTISDGGTYTYYPDNVKGRFTISRDNAKNSLYLQMNSLRAEDTAVYYCAREWGDYDGFDYWGQGTLVTVSS
VL: DIQMTQSPSSLSASVGDRVTITCRASQEISGYLSWLQQKPGGAIKRLIYAASTLDSGVPSRFSGSGSGSDYTLTISSLQPEDFATYYCLQYDSYPYTFGQGTKLEIKR
notes: Humanized, human IgG1/kappa
B7: Sh24C05-20 (antibody, human IgG1, kappa)
heavy: not shown
light: DIQMTQSPSSLSASVGDRVTITCRASQEISGYLSWFQQKPGKAPKSLIYAASTLDSGVPSRFSGSGSGTDFTLTISSLQPEDFATYYCLQYDSYPYTFGQGTKLEIKRTVAAPSVFIFPPSDEQLKSGTASVVCLLNNFYPREAKVQWKVDNALQSGNSQESVTEQDSKDSTYSLSSTLTLSKADYEKHKVYACEVTHQGLSSPVTKSFNRGEC
notes: Humanized, human IgG1/kappa
B8: Sh24C05-21 (antibody, human IgG1, kappa, V domains shown)
VH: EVQLVESGGGLVKPGGSLRLSCAASGFTFSDYAMSWVRQAPGKGLEWVSTISDGGTYTYYPDNVKGRFTISRDNAKNSLYLQMNSLRAEDTAVYYCAREWGDYDGFDYWGQGTLVTVSS
VL: DIQMTQSPSSLSASVGDRVTITCRASQEISGYLSWFQQKPGKAPKSLIYAASTLDSGVPSRFSGSGSGTDFTLTISSLQPEDFATYYCLQYDSYPYTFGQGTKLEIKR
notes: Humanized, human IgG1/kappa
B9: Sh24C05-22 (antibody, human IgG1, kappa, V domains shown)
VH: EVQLLESGGGLVQPGGSLRLSCAASGFTFSDYAMSWVRQAPGKGLEWVSTISDGGTYTYYPDNVKGRFTISRDNSKNTLYLQMNSLRAEDTAVYYCAREWGDYDGFDYWGQGTLVTVSS
VL: DIQMTQSPSSLSASVGDRVTITCRASQEISGYLSWFQQKPGKAPKSLIYAASTLDSGVPSRFSGSGSGTDFTLTISSLQPEDFATYYCLQYDSYPYTFGQGTKLEIKR
notes: Humanized, human IgG1/kappa
B10: Sh24C05-23 (antibody, human IgG1, kappa, V domains shown)
VH: QVQLVESGGGVVQPGRSLRLSCAASGFTFSDYAMSWVRQAPGKGLEWVATISDGGTYTYYPDNVKGRFTISRDNSKNTLYLQMSSLRAEDTAVYYCAREWGDYDGFDYWGQGTLVTVSS
VL: DIQMTQSPSSLSASVGDRVTITCRASQEISGYLSWFQQKPGKAPKSLIYAASTLDSGVPSRFSGSGSGTDFTLTISSLQPEDFATYYCLQYDSYPYTFGQGTKLEIKR
notes: Humanized, human IgG1/kappa
B11: Sh24C05-24 (antibody, human IgG1, kappa)
heavy: not shown
light: DIQMTQSPSSLSASVGDRVTITCRASQEISGYLSWFQQKPGKAPKSLIYAASTLDSGVPSRFSGSGSGTDFTLTISSLQPEDFATYYCLQYDSYPYTFGQGTKLEIKRTVAAPSVFIFPPSDEQLKSGTASVVCLLNNFYPREAKVQWKVDNALQSGNSQESVTEQDSKDSTYSLSSTLTLSKADYEKHKVYACEVTHQGLSSPVTKSFNRGEC
notes: Humanized, human IgG1/kappa
B12: Sh24C05-26 (antibody, human IgG1, kappa)
heavy: not shown
light: DIQMTQSPSSLSASVGDRVTITCRASQEISGYLSWYQQKPGKAPKRLIYAASTLDSGVPSRFSGSGSGTEFTLTISSLQPEDFATYYCLQYDSYPYTFGQGTKLEIKRTVAAPSVFIFPPSDEQLKSGTASVVCLLNNFYPREAKVQWKVDNALQSGNSQESVTEQDSKDSTYSLSSTLTLSKADYEKHKVYACEVTHQGLSSPVTKSFNRGEC
notes: Humanized, human IgG1/kappa
B13: Sh24C05-27 (antibody, human IgG1, kappa, V domains shown)
VH: EVQLVESGGGLVKPGGSLRLSCAASGFTFSDYAMSWVRQAPGKGLEWVSTISDGGTYTYYPDNVKGRFTISRDNAKNSLYLQMNSLRAEDTAVYYCAREWGDYDGFDYWGQGTLVTVSS
VL: DIQMTQSPSSLSASVGDRVTITCRASQEISGYLSWYQQKPGKAPKRLIYAASTLDSGVPSRFSGSGSGTEFTLTISSLQPEDFATYYCLQYDSYPYTFGQGTKLEIKR
notes: Humanized, human IgG1/kappa
B14: Sh24C05-28 (antibody, human IgG1, kappa, V domains shown)
VH: EVQLLESGGGLVQPGGSLRLSCAASGFTFSDYAMSWVRQAPGKGLEWVSTISDGGTYTYYPDNVKGRFTISRDNSKNTLYLQMNSLRAEDTAVYYCAREWGDYDGFDYWGQGTLVTVSS
VL: DIQMTQSPSSLSASVGDRVTITCRASQEISGYLSWYQQKPGKAPKRLIYAASTLDSGVPSRFSGSGSGTEFTLTISSLQPEDFATYYCLQYDSYPYTFGQGTKLEIKR
notes: Humanized, human IgG1/kappa
B15: Sh24C05-29 (antibody, human IgG1, kappa, V domains shown)
VH: QVQLVESGGGVVQPGRSLRLSCAASGFTFSDYAMSWVRQAPGKGLEWVATISDGGTYTYYPDNVKGRFTISRDNSKNTLYLQMSSLRAEDTAVYYCAREWGDYDGFDYWGQGTLVTVSS
VL: DIQMTQSPSSLSASVGDRVTITCRASQEISGYLSWYQQKPGKAPKRLIYAASTLDSGVPSRFSGSGSGTEFTLTISSLQPEDFATYYCLQYDSYPYTFGQGTKLEIKR
notes: Humanized, human IgG1/kappa
B16: Sh24C05-30 (antibody, human IgG1, kappa)
heavy: not shown
light: DIQMTQSPSSLSASVGDRVTITCRASQEISGYLSWYQQKPGKAPKRLIYAASTLDSGVPSRFSGSGSGTEFTLTISSLQPEDFATYYCLQYDSYPYTFGQGTKLEIKRTVAAPSVFIFPPSDEQLKSGTASVVCLLNNFYPREAKVQWKVDNALQSGNSQESVTEQDSKDSTYSLSSTLTLSKADYEKHKVYACEVTHQGLSSPVTKSFNRGEC
notes: Humanized, human IgG1/kappa
B17: Sh24C05-33 (antibody, human IgG1, kappa, V domains shown)
VH: EVQLVESGGGLVKPGGSLRLSCAASGFTFSDYAMSWVRQAPGKGLEWVSTISDGGTYTYYPDNVKGRFTISRDNAKNSLYLQMNSLRAEDTAVYYCAREWGDYDGFDYWGQGTLVTVSS
VL: DIQMTQSPSSLSASVGDRVTITCRASQEISGYLSWYQQKPGKAPKLLIYAASTLDSGVPSRFSGSGSGTDFTFTISSLQPEDIATYYCLQYDSYPYTFGQGTKLEIKR
notes: Humanized, human IgG1/kappa
B18: Sh24C05-34 (antibody, human IgG1, kappa, V domains shown)
VH: EVQLLESGGGLVQPGGSLRLSCAASGFTFSDYAMSWVRQAPGKGLEWVSTISDGGTYTYYPDNVKGRFTISRDNSKNTLYLQMNSLRAEDTAVYYCAREWGDYDGFDYWGQGTLVTVSS
VL: DIQMTQSPSSLSASVGDRVTITCRASQEISGYLSWYQQKPGKAPKLLIYAASTLDSGVPSRFSGSGSGTDFTFTISSLQPEDIATYYCLQYDSYPYTFGQGTKLEIKR
notes: Humanized, human IgG1/kappa
B19: Sh24C05-35 (antibody, human IgG1, kappa, V domains shown)
VH: QVQLVESGGGVVQPGRSLRLSCAASGFTFSDYAMSWVRQAPGKGLEWVATISDGGTYTYYPDNVKGRFTISRDNSKNTLYLQMSSLRAEDTAVYYCAREWGDYDGFDYWGQGTLVTVSS
VL: DIQMTQSPSSLSASVGDRVTITCRASQEISGYLSWYQQKPGKAPKLLIYAASTLDSGVPSRFSGSGSGTDFTFTISSLQPEDIATYYCLQYDSYPYTFGQGTKLEIKR
notes: Humanized, human IgG1/kappa

Each binder was assayed against T1, recombinant human ErbB3 monomeric protein (cleaved rhErbB3) (human, UniProt P21860 20-643, limits assumed) (assay: SPR Biacore 37 C; supernatant antibody captured on anti-human Fc, cleaved rhErbB3 injected).
T1 construct: Monomer made by protease cleavage of the Fc fusion; also called Monomeric ErbB3
Protocol: The analyses were performed at 37° C. using PBS (Invitrogen, Catalog No. 14040-133) containing 0.05% surfactant P20 (Biacore, Catalog No. BR-1000-54) as running buffer.
The antibodies were captured in individual flow cells at a flow rate of […]. Injection time was varied for each antibody to yield an Rₘₐₓ between 30 and 60 RU. […] The dissociation phase was monitored for up to 1200 seconds. The surface was then regenerated with two 60 second injections of Glycine pH 2.25 (made from Glycine pH 2.0 (Biacore, Catalog No. BR-1003-55) and pH 2.5 (Biacore, Catalog No. BR-1003-56)) at […].
Kinetic parameters were determined using the kinetic function of the BIAevaluation software (Biacore) with double reference subtraction. Kinetic parameters for each antibody, kₐ (association rate constant), kd (dissociation rate constant) and KD (equilibrium dissociation constant) were determined.
With B1 the Kd was 0.707 nM, the koff was 0.00606 s⁻¹ and the kon was 8.57e+06 M⁻¹ s⁻¹. Binder B2 has a Kd of 0.173 nM, a koff of 0.000498 s⁻¹ and a kon of 2.88e+06 M⁻¹ s⁻¹. B3 showed a Kd of 0.187 nM, a koff of 0.000499 s⁻¹ and a kon of 2.67e+06 M⁻¹ s⁻¹. Binder B4 has a Kd of 0.147 nM, a koff of 0.000404 s⁻¹ and a kon of 2.75e+06 M⁻¹ s⁻¹. With B5 the Kd was 0.161 nM, the koff was 0.000463 s⁻¹ and the kon was 2.88e+06 M⁻¹ s⁻¹. Work on B6 yielded a Kd of 0.0855 nM, a koff of 0.000255 s⁻¹ and a kon of 3e+06 M⁻¹ s⁻¹. Binder B7 has a Kd of 0.221 nM, a koff of 0.000591 s⁻¹ and a kon of 2.67e+06 M⁻¹ s⁻¹. B8 showed a Kd of 0.22 nM, a koff of 0.000662 s⁻¹ and a kon of 3.11e+06 M⁻¹ s⁻¹. With B9 the Kd was 0.216 nM, the koff was 0.000601 s⁻¹ and the kon was 2.79e+06 M⁻¹ s⁻¹. B10 showed a Kd of 0.263 nM, a koff of 0.000721 s⁻¹ and a kon of 2.79e+06 M⁻¹ s⁻¹. Binder B11 has a Kd of 0.218 nM, a koff of 0.000628 s⁻¹ and a kon of 2.9e+06 M⁻¹ s⁻¹. For B12, the Kd was 0.22 nM, the koff was 0.000739 s⁻¹ and the kon was 3.36e+06 M⁻¹ s⁻¹. Work on B13 yielded a Kd of 0.24 nM, a koff of 0.000798 s⁻¹ and a kon of 3.34e+06 M⁻¹ s⁻¹. B14 was tested, and the Kd was 0.189 nM, the koff was 0.000614 s⁻¹ and the kon was 3.26e+06 M⁻¹ s⁻¹. With B15 the Kd was 0.182 nM, the koff was 0.000588 s⁻¹ and the kon was 3.25e+06 M⁻¹ s⁻¹. With B16 the Kd was 0.19 nM, the koff was 0.000787 s⁻¹ and the kon was 4.48e+06 M⁻¹ s⁻¹. For B17, the Kd was 1.08 nM, the koff was 0.00433 s⁻¹ and the kon was 4.02e+06 M⁻¹ s⁻¹. In the case of B18, the Kd is reported as 0.552 nM, the koff is reported as 0.006 s⁻¹ and the kon is reported as 1.09e+07 M⁻¹ s⁻¹. Binder B19 has a Kd of 0.655 nM, a koff of 0.00553 s⁻¹ and a kon of 8.44e+06 M⁻¹ s⁻¹.
